Experimental data as given in patent publication US20190100591A1 (ITEOS BELGIUM, published 2019).

Columns and labels:
[1] = target: Polyspecificity Reagent (PSR); test: flow cytometry, IgG presented on yeast, biotinylated PSR, normalised MFI
[2] = target: T1, human TIGIT expressed on cells (human, UniProt Q495A1 22-244); test: flow cytometry, Jurkat-hTIGIT, MFI
T1 construct: whole, on cells; on Jurkat E6.1 cells transduced with human TIGIT, on Promega TIGIT effector cells or on human primary T cells; the cell is named under assay; also called hTIGIT; Jurkat-hTIGIT
T1 sequence (looked up): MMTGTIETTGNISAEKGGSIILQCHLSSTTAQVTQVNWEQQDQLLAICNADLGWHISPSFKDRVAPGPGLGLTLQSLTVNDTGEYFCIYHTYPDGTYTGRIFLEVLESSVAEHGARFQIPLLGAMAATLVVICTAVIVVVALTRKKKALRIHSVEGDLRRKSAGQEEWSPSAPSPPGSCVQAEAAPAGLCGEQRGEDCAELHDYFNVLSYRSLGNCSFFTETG
Protocol: Antibodies were incubated with the cells for 20 min at 4° C. in FACS buffer. […] Fluorescence intensity was analysed using LSR BD Fortessa and cell binding was recorded as the median fluorescence intensity of PE in cells expressing TIGIT at their surface.
The half-maximal concentration of binding (EC50) to Jurkat-hTIGIT was calculated using a four-variable curve-fit equation in Prism.

[3] = target: T2, recombinant human TIGIT protein (human, UniProt Q495A1 22-141, limits assumed); test: Biacore T200 SPR, IgG captured, steady state model
T2 construct: also called hTIGIT (Creative Biomart); antigen
T2 sequence (looked up): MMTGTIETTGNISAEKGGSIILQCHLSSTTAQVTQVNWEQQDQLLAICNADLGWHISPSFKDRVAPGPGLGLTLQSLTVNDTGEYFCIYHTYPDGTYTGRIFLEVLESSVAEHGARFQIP

[4] = target: T1, human TIGIT expressed on cells; test: FACS competition on Jurkat-hTIGIT; competitor CD155-His 15 ug/ml
[5] = target: T1, human TIGIT expressed on cells; test: flow cytometry, CD8+ T cells from cancer patient PBMC, MFI on TIGIT+CD8+
Protocol: Cells were distributed at 1×10^5 cells per well. […] Then, cells were washed and incubated with the following antibodies and life viability dye (LVD) mix: anti-CD4-PercP-Cy5.5 (clone A161A1, BioLegend 357414); anti-CD8-BV510 (clone SK1, BD Bioscience 563919) and LVD efluor 520 (eBioscience 65-0867-14). Cells were washed and fixed and surface staining was quantified using BD LSR Fortessa. Flow cytometry data was analysed using FlowJo V10.1. TIGIT MFI on gated LVD-TIGIT+CD8+ cells was used to calculate EC50 values.

[6] = target: T1, human TIGIT expressed on cells; test: flow cytometry, Jurkat-hTIGIT, MFI; end of the range tied to 313M32 by Table 16
[7] = target: T1, human TIGIT expressed on cells; test: flow cytometry, human primary CD8+ T cells (healthy PBMC), MFI on TIGIT+CD8+

Row | Binder | Polyspecificity Reagent (PSR) Score (0-1) [1] | other results
1 | anti-TIGIT antibody clone 26486 (antibody, V domains shown) VH: QVQLQESGPGLVKPSETLSLTCAVSGYSISSGYYWAWIRQPPGKGLEWIGSIYHSGSTYYNPSLKSRVTISVDTSKNQFSLKLSSVTAADTAVYYCAIEGANYYDFGYVAFDIWGQGTMVTVSS VL: EIVMTQSPATLSVSPGERATLSCRASQSVSSNLAWYQQKPGQAPRLLIYGASTRATGIPARFSGSGSGTEFTLTISSLQSEDFAVYYCQQSPPWPRTFGGGTKVEIK | 0 score (0-1) | 
2 | anti-TIGIT antibody clone 31288 (antibody, V domains shown) VH: QLQLQESGPGLVKPSETLSLTCTVSGGSISSGSYYLAWIRQPPGKGLEWIGSIFRSGSTYYNPSLESRVTISVDTSKNQFSLKLSSVTAADTAVYYCAIEGANFKDFGYVAFDIWGQGTTVTVSS VL: EIVMTQSPATLSVSPGERATLSCRASQSVSSNLAWYQQKPGQAPRLLIYGASTRATGIPARFSGSGSGTEFTLTISSLQSEDFAVYYCQQSPPWPRTFGGGTKVEIK | 0 score (0-1) | 
3 | anti-TIGIT antibody clone 32931 (antibody, V domains shown) VH: QLQLQESGPGLVKPSETLSLTCTVSGGSISSGSYYLAWIRQPPGKGLEWIGSIFRSGSTYYNPSLESRVTISVDTSKNQFSLKLSSVTAADTAVYYCAIEGANFKDFGYVAFDIWGQGTTVTVSS VL: EIVMTQSPATLSVSPGERATLSCRASKSVSSNLAWYQQKPGQAPRLLIYFASTRATGIPARFSGSGSGTEFTLTISSLQSEDFAVYYCQQTSPWPRTFGGGTKVEIK | 0 score (0-1) | 
4 | anti-TIGIT antibody clone 29499 (antibody, V domains shown) VH: QLQLQESGPGLVKPSETLSLTCTVSGGSISSSRYYWAWIRQPPGKGLEWIGSIGTSGSTYYNPSLKSRVTISVDTSKNQFSLKLSSVTATDTAVYYCAIEGANFRDFGYVAFDIWGQGTMVTVSS VL: EIVMTQSPATLSVSPGERATLSCRASQSVSSNLAWYQQKPGQAPRLLIYGASTRATGIPARFSGSGSGTEFTLTISSLQSEDFAVYYCQQSPPWPRTFGGGTKVEIK | 0.1 score (0-1) | 
5 | anti-TIGIT antibody clone 29494 (antibody, V domains shown) VH: QVQLQESGPGLVKPSETLSLTCTVSGGSISSGSYYLAWIRQPPGKGLEWIGSIFRSGSTYYNPSLESRVTISVDTSKNQFSLKLSSVTAADTAVYYCAIEGANFKDFGYVAFDIWGQGTMVTVSS VL: EIVMTQSPATLSVSPGERATLSCRASQSVSSNLAWYQQKPGQAPRLLIYGASTRATGIPARFSGSGSGTEFTLTISSLQSEDFAVYYCQQSPPWPRTFGGGTKVEIK | 0 score (0-1) | 
6 | anti-TIGIT antibody 313M32 (antibody, V domains shown) VH: QVQLQESGPGLVKPSETLSLTCAVSGYSITSDYAWNWIRQPPGKGLEWIGYISYSGSTSYNPSLRSRVTISRDTSKNQFFLKLSSVTAADTAVYYCARRQVGLGFAYWGQGTLVTVSS VL: DIQMTQSPSSLSASVGDRVTITCKASQDVSTAVAWYQQKPGKAPKLLIYSASYRYTGVPSRFSGSGSGTDFTFTISSLQPEDIATYYCQQHYSTPWTFGGGTKVEIK |  | EC50 [2]: 0.44 nM; Fold change of EC50 over EC50 of best clone (31282_wu) [2]: 4.2 fold; Kd [3]: 10.1 nM; Fold change of IC50 over IC50 of best clone (31282_up) [4]: 16.7 fold; IC50 [4]: 0.65 nM; EC50 [5]: 1 nM; Fold change of EC50 over EC50 of best clone (31282) [5]: 8.3 fold; EC50 [6]: 0.445 nM; EC50 [7]: 1.45 nM; Fold change of EC50 over EC50 of best clone (31282_wu) [7]: 7.5 fold
7 | anti-TIGIT antibody clone 26493 (antibody, V domains shown) VH: EVQLVESGGGLVQPGRSLRLSCAASGFTFGDYAMHWVRQAPGKGLEWVSGITWNSGSIGYADSVKGRFTISRDNAKNSLYLQMNSLRAEDTALYYCAKPVPKSRGLDVWGQGTMVTVSS VL: DIQLTQSPSSVSASVGDRVTITCRASQGISSWLAWYQQKPGKAPKLLIYGASSLQSGVPSRFSGSGSGTDFTLTISSLQPEDFATYYCQQAFYLPWTFGGGTKVEIK | 0 score (0-1) | 
8 | anti-TIGIT antibody clone 29523 (antibody, V domains shown) VH: EVQLVESGGGVVQPGRSLRLSCAASGFTFGSYYMHWVRQAPGKGLEWVAVIWPDGSNKLYADSVKGRFTISRDNSKNTLYLQMNSLRAEDTALYYCAKPVPKSRALDVWGQGTMVTVSS VL: DIQLTQSPSSVSASVGDRVTITCRASQGISSWLAWYQQKPGKAPKLLIYGASSLQSGVPSRFSGSGSGTDFTLTISSLQPEDFATYYCQQAFYLPWTFGGGTKVEIK | 0.12 score (0-1) | 
9 | anti-TIGIT antibody clone 29527 (antibody, V domains shown) VH: QVQLVESGGGVVQPGRSLRLSCAASGFTFSSSYMHWVRQAPGKGLEWVAVIGADGSNKYYADSVEGRFTISRDNSKNTLYLQMNSLRAEDTALYYCAKPVPRRRGLDVWGQGTMVTVSS VL: DIQLTQSPSSVSASVGDRVTITCRASQGISSWLAWYQQKPGKAPKLLIYGASSLQSGVPSRFSGSGSGTDFTLTISSLQPEDFATYYCQQAFYLPWTFGGGTKVEIK | 0.12 score (0-1) | 
10 | anti-TIGIT antibody clone 29520 (antibody, V domains shown) VH: QVQLVESGGGLVQPGRSLRLSCAASGFTFRDYAMHWVRQAPGKGLEWVSGITWNSGLIGYADSVKGRFTISRDNAKNSLYLQMNSLRAEDTALYYCAKPVPRLRGLDVWGQGTMVTVSS VL: DIQLTQSPSSVSASVGDRVTITCRASQGISSWLAWYQQKPGKAPKLLIYGASSLQSGVPSRFSGSGSGTDFTLTISSLQPEDFATYYCQQAFYLPWTFGGGTKVEIK | 0.32 score (0-1) | 
11 | anti-TIGIT antibody clone 29513 (antibody, V domains shown) VH: QVQLVQSGAEVKKPGSSVKVSCKASGGTFQNYAISWVRQAPGQGLEWMGVIVPIFGTANYAQKFQGRVTVTADESTSTAYMELSSLRSEDTAVYYCARLHLGQKAYYGMDVWGQGTTVTVSS VL: DIQMTQSPSSLSASVGDRVTITCRASQSISSYLNWYQQKPGKAPKLLIYAASSLQSGVPSRFSGSGSGTDFTLTISSLQPEDFATYYCQQRYVFPPTFGGGTKVEIK | 0.01 score (0-1) | 
